Measured values from patent US20200024330A1.

Tests used:
Experiment in all cases: cell-based or functional assay
[1] = molecular target: aMLV envelope (negative control pseudovirus)
[2] = molecular target: HIV-1 Env of isolate MGRM-G-015 (HIV-1)
[3] = molecular target: HIV-1 92TH021 envelope glycoprotein (Env) on pseudovirus (HIV-1)
[4] = molecular target: HIV-1 Env of isolate MGRM-AE-008 (HIV-1)
[5] = molecular target: HIV-1 Env of isolate MGRM-G-019 (HIV-1)
[6] = molecular target: HIV-1 Env of isolate MGRM-G-027 (HIV-1)
[7] = molecular target: HIV-1 Env of isolate MGRM-G-011 (HIV-1)
[8] = molecular target: HIV-1 TRJ04551.58 Env (pseudovirus) (HIV-1)
[9] = molecular target: HIV-1 Env of isolate MGRM-AE-007 (HIV-1)
[10] = molecular target: HIV-1 Env of isolate MG RM-D-003 (subtype D) (HIV-1)
[11] = molecular target: HIV-1 Env of isolate MGRM-G-006 (HIV-1)
[12] = molecular target: HIV-1 Env of isolate MGRM-G-014 (HIV-1)
[13] = molecular target: HIV-1 Env of isolate MGRM-G-009 (HIV-1)
[14] = molecular target: HIV-1 Env of isolate MGRM-G-001 (HIV-1)
[15] = molecular target: HIV-1 Env of isolate MGRM-AE-005 (HIV-1)
[16] = molecular target: HIV-1 Env of isolate MGRM-G-004 (HIV-1)
[17] = molecular target: HIV-1 Env of isolate MGRM-G-017 (HIV-1)
[18] = molecular target: HIV-1 Env of isolate MGRM-G-013 (HIV-1)
[19] = molecular target: HIV-1 Env of isolate MGRM-AE-004 (HIV-1)
[20] = molecular target: HIV-1 92UG024 envelope glycoprotein (Env) on pseudovirus (HIV-1)
[21] = molecular target: HIV-1 Env of isolate MGRM-AE-006 (HIV-1)
[22] = molecular target: HIV-1 NL43 envelope glycoprotein (Env) on pseudovirus (HIV-1)
[23] = molecular target: HIV-1 Env of isolate MGRM-G-016 (HIV-1)
[24] = molecular target: HIV-1 92RW020 envelope glycoprotein (Env) on pseudovirus (HIV-1)
[25] = molecular target: HIV-1 92BR020 envelope glycoprotein (Env) on pseudovirus (HIV-1)
[26] = molecular target: HIV-1 Env of isolate MGRM-Chronic-B-012 (HIV-1)
[27] = molecular target: HIV-1 Env of isolate MGRM-Chronic-B-023 (HIV-1)
[28] = molecular target: HIV-1 Env of isolate MGRM-Chronic-B-024 (HIV-1)
[29] = molecular target: HIV-1 Env of isolate JRFL (HIV-1)
[30] = molecular target: HIV-1 Env of isolate MGRM-Chronic-B-020 (HIV-1)
[31] = molecular target: HIV-1 Env of isolate MGRM-Chronic-B-011 (HIV-1)
[32] = molecular target: HIV-1 Env of isolate MGRM-Chronic-B-017 (HIV-1)
[33] = molecular target: HIV-1 Env of isolate MGRM-Chronic-B-018 (HIV-1)
[34] = molecular target: HIV-1 Env of isolate 92BR020 (pseudovirus) (HIV-1 isolate 92BR020, subtype B)
[35] = molecular target: HIV-1 Env of isolate MGRM-Chronic-B-010 (HIV-1)

## 4838_L06 (PGT-121) (antibody)
[1]
  IC50, pseudovirus neutralization: > 50 µg/mL
[2]
  IC50, pseudovirus neutralization: > 50 µg/mL
[3]
  IC50 (ug/ml), neutralizing activity: > 10 µg/mL
[4]
  neutralization IC50: > 50 µg/mL
[5]
  IC50, pseudovirus neutralization: 0.011 µg/mL
[6]
  IC50, pseudovirus neutralization: 0.124 µg/mL
[7]
  IC50, pseudovirus neutralization: 3.17 µg/mL
[8]
  IC50, pseudovirus neutralization: 7.09 µg/mL
[9]
  neutralization IC50: > 50 µg/mL
[10]
  IC50 (µg/mL), pseudovirus neutralization: 10.7 µg/mL
[11]
  IC50, pseudovirus neutralization: > 50 µg/mL
[12]
  IC50, pseudovirus neutralization: 0.009 µg/mL
[13]
  IC50, pseudovirus neutralization: 0.02 µg/mL
[14]
  IC50, pseudovirus neutralization: 0.004 µg/mL
[15]
  neutralization IC50: > 50 µg/mL
[16]
  IC50, pseudovirus neutralization: 0.115 µg/mL
[17]
  IC50, pseudovirus neutralization: 0.004 µg/mL
[18]
  IC50, pseudovirus neutralization: 3.99 µg/mL
[19]
  neutralization IC50: > 50 µg/mL
[20]
  IC50 (ug/ml), neutralizing activity: > 10 µg/mL
[21]
  neutralization IC50: > 50 µg/mL
[22]
  IC50 (ug/ml), neutralizing activity: > 10 µg/mL
[23]
  IC50, pseudovirus neutralization: > 50 µg/mL

## 4858_P08 (PGT-123) (antibody)
[1]
  IC50, pseudovirus neutralization: > 50 µg/mL
[2]
  IC50, pseudovirus neutralization: > 50 µg/mL
[3]
  IC50 (ug/ml), neutralizing activity: > 10 µg/mL
  IC50, pseudovirus neutralization: > 10 µg/mL
  IC80, pseudovirus neutralization: > 10 µg/mL
  IC90 (pseudovirus neutralization): > 10 µg/mL
  IC95, pseudovirus neutralization: > 10 µg/mL
[4]
  neutralization IC50: > 50 µg/mL
[5]
  IC50, pseudovirus neutralization: 0.008 µg/mL
[6]
  IC50, pseudovirus neutralization: 0.182 µg/mL
[7]
  IC50, pseudovirus neutralization: 14.9 µg/mL
[8]
  IC50, pseudovirus neutralization: 16.9 µg/mL
[9]
  neutralization IC50: > 50 µg/mL
[10]
  IC50 (µg/mL), pseudovirus neutralization: 3.74 µg/mL
[11]
  IC50, pseudovirus neutralization: > 50 µg/mL
[12]
  IC50, pseudovirus neutralization: 0.005 µg/mL
[13]
  IC50, pseudovirus neutralization: 33.5 µg/mL
[14]
  IC50, pseudovirus neutralization: 0.009 µg/mL
[15]
  neutralization IC50: > 50 µg/mL
[16]
  IC50, pseudovirus neutralization: 0.181 µg/mL
[24]
  IC50 (ug/ml), neutralizing activity: 0.0038 µg/mL
  IC50, pseudovirus neutralization: 0.0038 µg/mL
  IC80, pseudovirus neutralization: 0.0106 µg/mL
  IC90 (pseudovirus neutralization): 0.0194 µg/mL
  IC95, pseudovirus neutralization: 0.0343 µg/mL
[17]
  IC50, pseudovirus neutralization: 0.026 µg/mL
[18]
  IC50, pseudovirus neutralization: 3.97 µg/mL
[19]
  neutralization IC50: > 50 µg/mL
[25]
  IC50 (ug/ml), neutralizing activity: 0.013 µg/mL
  IC50, pseudovirus neutralization: 0.013 µg/mL
  IC80, pseudovirus neutralization: 0.039 µg/mL
  IC90 (pseudovirus neutralization): 0.0741 µg/mL
  IC95, pseudovirus neutralization: 0.134 µg/mL
[20]
  IC50 (ug/ml), neutralizing activity: > 10 µg/mL
  IC50, pseudovirus neutralization: > 10 µg/mL
  IC80, pseudovirus neutralization: > 10 µg/mL
  IC90 (pseudovirus neutralization): > 10 µg/mL
  IC95, pseudovirus neutralization: > 10 µg/mL
[21]
  neutralization IC50: > 50 µg/mL
[22]
  IC50 (ug/ml), neutralizing activity: > 10 µg/mL
  IC50, pseudovirus neutralization: > 10 µg/mL
  IC80, pseudovirus neutralization: > 10 µg/mL
  IC90 (pseudovirus neutralization): > 10 µg/mL
  IC95, pseudovirus neutralization: > 10 µg/mL
[23]
  IC50, pseudovirus neutralization: > 50 µg/mL

## 5136_H01 (PGT-131) (antibody)
[1]
  IC50, pseudovirus neutralization: > 50 µg/mL
[26]
  IC50: 15.7 µg/mL
[2]
  IC50, pseudovirus neutralization: > 50 µg/mL
[27]
  IC50: > 50 µg/mL
[5]
  IC50, pseudovirus neutralization: > 50 µg/mL
[28]
  IC50: > 50 µg/mL
[6]
  IC50, pseudovirus neutralization: 2.9 µg/mL
[7]
  IC50, pseudovirus neutralization: > 50 µg/mL
[11]
  IC50, pseudovirus neutralization: > 50 µg/mL
[29]
  IC50: 0.454 µg/mL
[12]
  IC50, pseudovirus neutralization: 4.31 µg/mL
[30]
  IC50: 0.053 µg/mL
[13]
  IC50, pseudovirus neutralization: > 50 µg/mL
[14]
  IC50, pseudovirus neutralization: 0.404 µg/mL
[31]
  IC50: 6.47 µg/mL
[32]
  IC50: > 50 µg/mL
[16]
  IC50, pseudovirus neutralization: > 50 µg/mL
[17]
  IC50, pseudovirus neutralization: > 50 µg/mL
[18]
  IC50, pseudovirus neutralization: > 50 µg/mL
[33]
  IC50: > 50 µg/mL
[34]
  IC50 (µg/mL) neutralization: 6.16 µg/mL
[35]
  IC50: 0.016 µg/mL
[23]
  IC50, pseudovirus neutralization: > 50 µg/mL

## 5145_B14 (PGT-127) (antibody)
[1]
  IC50, pseudovirus neutralization: > 50 µg/mL
[2]
  IC50, pseudovirus neutralization: > 50 µg/mL
[4]
  neutralization IC50: > 50 µg/mL
[5]
  IC50, pseudovirus neutralization: 0.429 µg/mL
[6]
  IC50, pseudovirus neutralization: > 50 µg/mL
[7]
  IC50, pseudovirus neutralization: > 50 µg/mL
[8]
  IC50, pseudovirus neutralization: 0.063 µg/mL
[9]
  neutralization IC50: > 50 µg/mL
[10]
  IC50 (µg/mL), pseudovirus neutralization: 0.029 µg/mL
[11]
  IC50, pseudovirus neutralization: > 50 µg/mL
[12]
  IC50, pseudovirus neutralization: 0.009 µg/mL
[13]
  IC50, pseudovirus neutralization: > 50 µg/mL
[14]
  IC50, pseudovirus neutralization: 0.113 µg/mL
[15]
  neutralization IC50: > 50 µg/mL
[16]
  IC50, pseudovirus neutralization: > 50 µg/mL
[17]
  IC50, pseudovirus neutralization: > 50 µg/mL
[18]
  IC50, pseudovirus neutralization: 7.7 µg/mL
[19]
  neutralization IC50: > 50 µg/mL
[21]
  neutralization IC50: > 50 µg/mL
[23]
  IC50, pseudovirus neutralization: > 50 µg/mL
